{"source": "patent US20110045003A1", "about": "(SYNOVEX, published 2011)", "binders": {"B1": {"name": "humanized anti-Cad-11 EC1 antibody SDP051 (Vκ1/VH5) (antibody, IgG4, V domains shown)", "VH": "EVQLVQSGAEVKKPGASVKVSCKASGYSFTGYFMNWVRQAPGQGLEWIGRINPYTGDTFYNQKFKGRVTITVDKSTSTAYMELSSLRSEDTAVYYCGRLGSRYWYFDVWGQGTTVTVSS", "VL": "DVLMTQTPLSSPVTLGQPASISCRSSQSIIHSNGNTYLEWYLQKPGQSPQLLIYKVSNRFSGVPDRFTGSGSGTDFTLKISRVEAEDVGVYYCFQGSHVPWTFGQGTKLEIK", "notes": "humanized IgG4 (S241P), kappa"}, "B2": {"name": "murine H1M1 monoclonal anti-Cad-11 EC1 antibody (hybridoma H1M1, ATCC PTA-9699) (antibody, V domains shown)", "VH": "EVQLQQSGPELVKPGASVKISCKASGYSFTGYFMNWVKQSHGKSLEWIGRINPYTGDTFYNQKFKGKATLTVDKSSSTAHMELLSLSSEDSAVYYCGRLGSRYWYFDVWGAGTTVTVSS", "VL": "B1 VL with S11L, T14S, Q17D, P18Q, Q50K, V88L, Q105G", "modifications": "Biotinylated when used as the labelled competitor in Example 14; the letters are unchanged.", "notes": "murine antibody raised against Peptide 4; also called SYN0012; SYN0012/H1M1"}}, "key": {"[1]": {"target": "T1, BSA coupled 37-mer Cad-11 peptide encompassing the Cad-11 immunogen (UniProt P55287 54-90, limits assumed, linked to BSA)", "T1 construct": "domain: 37-mer peptide encompassing the Cad-11 immunogen; also called Cad-11 antigen; Cad-11 peptide immunogen", "T1 peptide (looked up)": "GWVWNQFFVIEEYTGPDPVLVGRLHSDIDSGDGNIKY", "experiment": "ELISA on BSA coupled 37-mer cadherin peptides, coat 500 ng/ml", "description": "A dilution series from 5 μg/ml to 8 ng/ml in a volume of 100 μl/well of each the humanized anti-Cad-11 antibodies were incubated in the peptide coated wells and incubated at 22° C. for 1 hr. Antibody solution was removed from the wells and the plate washed twice with 200 μl/well of 0.05% Tween-PBS at 22° C. and blotted dry. The goat-anti mouse IgG (Pierce # 31432) was added to each well to plate at a 1:1000 dilution, 100 μl/well and incubate at 22° C. for 30 min. The secondary antibody solution was removed and the plate washed twice with 200 μl/well of 0.05% Tween-PBS at 22° C. and blotted dry. The reaction was developed by adding 100 μl/well tetramethylbenzidine (TMB) reagent IgG (Pierce # 34022, 1 step Turbo TMB-ELISA) to plate and developed at 22° C. for 5 min.\nThe greatest cross reactivity was seen against Cad-8. […] This assay was repeated with the Cad-11, Cad-8 and Cad-18 antigens with a lower antigen coat concentration of 50 ng/ml and a wider dilution series of the SDP051 antibody (FIG. 41B). […] An EC50 for Cad-18 could not be established due to the low level of binding observed."}, "[2]": {"target": "T2, recombinant Cad-11 EC1 human IgG1 fusion protein (R&D Systems Cat. No. 1790-CA-050) (human, UniProt P55287 54-617, limits assumed)", "T2 construct": "Bought protein; the catalogue product may hold more of the extracellular region; also called recombinant human Cad-11 EC1; recombinant human Cad-11 fusion protein; not shown: human IgG1 part of the bought fusion protein", "T2 sequence": "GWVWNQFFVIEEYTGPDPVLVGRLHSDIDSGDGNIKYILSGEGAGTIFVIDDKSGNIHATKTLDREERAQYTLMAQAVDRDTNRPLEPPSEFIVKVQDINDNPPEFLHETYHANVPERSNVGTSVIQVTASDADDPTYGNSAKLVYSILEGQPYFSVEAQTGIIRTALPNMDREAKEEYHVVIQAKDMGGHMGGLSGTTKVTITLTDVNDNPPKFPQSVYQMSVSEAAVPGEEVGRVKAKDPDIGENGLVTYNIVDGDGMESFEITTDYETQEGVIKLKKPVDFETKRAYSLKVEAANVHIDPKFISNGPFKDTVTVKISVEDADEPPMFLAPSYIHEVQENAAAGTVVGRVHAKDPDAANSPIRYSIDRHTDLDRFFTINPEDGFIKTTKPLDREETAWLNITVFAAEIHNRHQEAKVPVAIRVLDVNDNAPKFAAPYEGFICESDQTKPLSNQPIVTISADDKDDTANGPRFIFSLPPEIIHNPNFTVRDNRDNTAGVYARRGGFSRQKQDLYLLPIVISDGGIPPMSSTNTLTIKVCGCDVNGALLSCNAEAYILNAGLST", "experiment": "competition ELISA on coated recombinant human Cad-11 EC1 fusion protein; competitor biotinylated SYN0012 at 0.1 µg/ml, streptavidin-HRP, OD450", "description": "The binding of the purified humanized composite variant antibodies (SDP011 to SDP151) to a recombinant Cad-11 EC1 human IgG1 fusion protein was assessed in a competition binding ELISA. A dilution series from 5 μg/ml to 0.0022 μg/ml of the humanized or control (SYN0012/H1M1) antibodies was premixed with a constant concentration of biotinylated murine anti-Cad-11 antibody, SYN0012/H1M1 (0.1 μg/ml, final concentration), before incubating for 1 hour at room temperature on a Nunc Immuno MaxiSorp 96 well flat bottom microtitre plate (Fisher Cat. No. DIS-971-030J) pre-coated with 0.25 μg/ml recombinant human Cad-11 EC1 (R&D Systems Cat. No. 1790-CA-050) diluted in PBS. The binding of the biotinylated mAb was detected with streptavidin-HRP (Sigma Cat. No. 55512) and tetramethylbenzidine (TMB) substrate (Invitrogen Cat. No. 00-2023)."}, "[3]": {"target": "T3, Peptide 1 (amino acids G1-P18 of the Cad-11 EC1 domain) (human)", "T3 construct": "Range counted on the EC1 domain; also called PEP1", "T3 peptide": "GWVWNQFFVIEEYTGPDP", "experiment": "ELISA on coated peptide or protein, antibody at one dilution, goat anti-mouse IgG, TMB, OD450", "description": "(§1) To determine the epitope within the Cad-11 EC1 domain that the Peptide 4 Cad-11 EC1 antibodies H1M1 and H14 bind, four different peptides spanning the first 37 amino acids of the EC1 region (see FIG. 22) were immobilized in an ELISA format and the ability of the H1M1 and H14 antibodies to bind each of the four peptides was determined. 96-well Reactibind plates were coated overnight at 4° C. with 0.3 ng/well of Peptide 1 (amino acids G1-P18 of the Cad-11 EC1 domain), 0.3 ng/well of Peptide 2 (amino acids G15-N34 of the Cad-11 EC1 domain), 0.3 ng/well of Peptide 3 (amino acids V19-Y37 of the Cad-11 EC1 domain), 0.3 ng/well of the immunogen Peptide 4 (amino acids G1-G33 of the Cad-11 EC1 domain), 20 ng of a fusion protein including the entire EC1 domain (EFL), or 20 ng of control human Ig (Fc-block). The wells were washed twice with PBS-Tween (0.05%), blocked with casein in dH₂0 for 3 hrs at 22° C. and then washed again twice with PBS-Tween (0.05%). Various dilutions of the different Peptide 4 Cad-11 EC1 domain antibodies were transferred to the peptide- or protein-coated wells, incubated for 45 min at 22° C. and then washed twice with PBS-Tween (0.05%). 100 μl of a 1/1000 dilution of goat anti-mouse IgG secondary antibody (Jackson ImmunoResearch, West Grove, Pa.) were added to each well, incubated for 30 min at 22° C. and then washed twice with PBS-Tween (0.05%). 100 μl/well of room temperature TMB reagent was added to each well and color was allowed to develop for 5 min at 22° C."}, "[4]": {"target": "T4, Peptide 3 (amino acids V19-Y37 of the human Cad-11 EC1 domain) (human)", "T4 construct": "also called PEP3; peptide V19-Y37", "T4 peptide": "VLVGRLHSDIDSGDGNIKY", "experiment": "ELISA on coated peptide or protein, antibody at one dilution, goat anti-mouse IgG, TMB, OD450", "description": "as §1"}, "[5]": {"target": "T5, Peptide 2 (amino acids G15-N34 of the Cad-11 EC1 domain) (human)", "T5 construct": "Range counted on the EC1 domain; also called PEP2", "T5 peptide": "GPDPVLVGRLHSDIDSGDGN", "experiment": "ELISA on coated peptide or protein, antibody at one dilution, goat anti-mouse IgG, TMB, OD450", "description": "as §1"}}, "note": "Substitutions are numbered along the chain they refer to. Numbers in names are those of the source.", "data": [{"binder": "B1", "values": [{"measurement": "fold greater binding to the Cad-11 antigen than to the related antigens from the other cadherins", "setting": "[1]", "value": "> 100", "unit": "fold"}, {"measurement": "IC50 (read off the curve)", "setting": "[2]", "value": "~0.2", "unit": "µg/mL"}]}, {"binder": "B2", "values": [{"measurement": "binding result", "setting": "[3]", "value": "no binding"}, {"measurement": "binding result", "setting": "[4]", "value": "no binding"}, {"measurement": "binding result", "setting": "[5]", "value": "binds"}, {"measurement": "IC50 (read off the curve)", "setting": "[2]", "value": "~0.2", "unit": "µg/mL"}]}]}
